Test results published in PMC5267338.

Legend:
[1] = target: human mitochondrial ferredoxin 1 (FDX1), holo form with [2Fe-2S] cluster (H. sapiens); assay: ITC
[2] = target: human mitochondrial ferredoxin 2 (FDX2), holo form with [2Fe-2S] cluster (H. sapiens) (UniProt Q6P4F2); assay: ITC
Chain of human mitochondrial ferredoxin 2 (FDX2), holo form with [2Fe-2S] cluster (H. sapiens) (Q6P4F2 53-183): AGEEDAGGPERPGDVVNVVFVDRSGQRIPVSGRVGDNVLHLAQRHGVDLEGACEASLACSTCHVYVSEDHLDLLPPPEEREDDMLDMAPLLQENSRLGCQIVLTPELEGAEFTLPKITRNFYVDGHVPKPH

Chain of [Acp]2:[ISD11]2:[NFS1]2 complex (cysteine desulfurase complex) (Q9Y697 53-457): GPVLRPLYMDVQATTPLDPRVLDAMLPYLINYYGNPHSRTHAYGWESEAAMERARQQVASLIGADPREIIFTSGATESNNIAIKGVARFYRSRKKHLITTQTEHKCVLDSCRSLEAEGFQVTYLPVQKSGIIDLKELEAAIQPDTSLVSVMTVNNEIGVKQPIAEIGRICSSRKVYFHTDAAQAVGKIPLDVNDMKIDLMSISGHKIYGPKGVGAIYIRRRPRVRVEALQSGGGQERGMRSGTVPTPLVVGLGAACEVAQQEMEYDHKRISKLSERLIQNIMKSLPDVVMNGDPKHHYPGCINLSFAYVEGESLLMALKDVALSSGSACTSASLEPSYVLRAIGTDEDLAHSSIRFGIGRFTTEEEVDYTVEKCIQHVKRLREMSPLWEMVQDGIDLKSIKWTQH
Chain of [Acp]2:[ISD11]2:[NFS1]2 complex (cysteine desulfurase complex) (Q9HD34 whole entry): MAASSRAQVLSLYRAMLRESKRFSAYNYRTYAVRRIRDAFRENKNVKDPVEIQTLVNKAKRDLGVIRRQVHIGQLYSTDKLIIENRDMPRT
Chain of [Acp]2:[ISD11]2:[NFS1]2 complex (cysteine desulfurase complex) (P0A6A8 2-78): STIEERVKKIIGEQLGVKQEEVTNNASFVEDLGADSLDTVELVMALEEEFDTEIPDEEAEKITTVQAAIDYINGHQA

[Acp]2:[ISD11]2:[NFS1]2 complex (cysteine desulfurase complex) (from UniProt Q9Y697 53-457; Q9HD34 1-91; P0A6A8 2-78)
Kd [1]: 41.7 µM | Kd [2]: 14.9 µM
